These results are taken from FireProtDB (doi:10.1021/bi00150a028).

The Tm is the temperature at the midpoint of the melting transition.

The conditions of the data set: Homo sapiens, pH 3, Thermal, DSC, glycine-HCl 0.05 M, reversible: yes, whole UniProt chain shown.

B1: Lysozyme C wild type, P61626 (protein)
chain: MKALIVLGLVLLSVTVQGKVFERCELARTLKRLGMDGYRGISLANWMCLAKWESGYNTRATNYNAGDRSTDYGIFQINSRYWCNDGKTPGAVNACHLSCSALLQDNIADAVACAKRVVRDPQGIRAWVAWRNRCQNRDVRQYVQGCGV
Take B1: the Tm worked out at 71.4 °C. Moreover, for the setting “57 °C”, the “heat capacity change of unfolding” value is 1.55 kcal/mol/K, the “unfolding enthalpy (calorimetric)” value came to 101 kcal/mol and the unfolding free energy is 4.6 kcal/mol.
